The target in this test is T1, toll-like receptor 10, extracellular domain (UniProt Q9BXR5 20-576).
T1 construct: toll-like receptor 10 (TLR10), extracellular domain; The extracellular domain is stated for the SPR experiment; also called TLR10; TLR10 cell surface receptor
T1 sequence (looked up): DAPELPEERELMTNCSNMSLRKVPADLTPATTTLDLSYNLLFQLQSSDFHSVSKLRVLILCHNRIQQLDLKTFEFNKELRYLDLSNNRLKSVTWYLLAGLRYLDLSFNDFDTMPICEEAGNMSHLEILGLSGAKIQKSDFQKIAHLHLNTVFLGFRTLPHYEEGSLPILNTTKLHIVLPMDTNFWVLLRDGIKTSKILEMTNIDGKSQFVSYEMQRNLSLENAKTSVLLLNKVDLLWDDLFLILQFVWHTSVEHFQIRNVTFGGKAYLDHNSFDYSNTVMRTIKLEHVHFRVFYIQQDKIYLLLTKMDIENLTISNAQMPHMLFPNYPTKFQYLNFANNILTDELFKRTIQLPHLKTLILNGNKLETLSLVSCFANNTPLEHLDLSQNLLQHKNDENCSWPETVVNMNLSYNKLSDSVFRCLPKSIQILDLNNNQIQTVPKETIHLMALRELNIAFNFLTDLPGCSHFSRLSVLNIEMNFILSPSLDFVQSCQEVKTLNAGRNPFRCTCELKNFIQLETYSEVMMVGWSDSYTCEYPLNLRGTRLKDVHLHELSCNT
The experiment in a line: SPR; synthetic thiopeptides and target protein; conditions in S.I. 2.10 (not shown). The conditions noted are these: both partners purified. A general note: In SPR one partner is held on a chip, and binding of the other changes the refractive index at the surface.

Where no end group is shown, it is not given here. pyridine‑bisazole = not defined here

B1: thiopeptide TL20 (synthetic) (peptide)
chain: SWSLELSRVNVVIHSCSC
modifications: bridge (positions not given here) via pyridine‑bisazole; reading uncertain; also: macrocyclic lactazole-like thiopeptide with pyridine-bisazole moiety, places not given here, dehydroamino acids, places not given here
Consider B1, for which the equilibrium dissociation constant (Kd) was determined as 300 nM.

What is called Kd is the constant that tells how readily two partners part at equilibrium. A higher Kd goes with a looser complex.

The values are drawn from PMC10683472, “Deep Learning-Driven Library Design for the De Novo Discovery of Bioactive Thiopeptides” (ACS Central Science, 2023).
